Drawing on publication PMC3826990, this text covers Kd for two substances.

This assay addresses His-Nudel^1–201 (UniProt Q9GZM8). In words: ITC. (In ITC the heat of successive injections is recorded.)
Sequence of UniProt Q9GZM8 (Q9GZM8 1-201): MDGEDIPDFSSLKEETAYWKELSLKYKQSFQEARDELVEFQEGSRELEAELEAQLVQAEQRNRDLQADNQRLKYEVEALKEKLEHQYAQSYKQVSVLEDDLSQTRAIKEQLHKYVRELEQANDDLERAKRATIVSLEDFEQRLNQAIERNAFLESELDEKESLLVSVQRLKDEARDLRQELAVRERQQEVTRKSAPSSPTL

For the substance His-DIC (natural protein), the Kd (as a rule, a measure of binding affinity in units of concentration) came to 7.8 µM. In other words, the single-digit micromolar range.

In turn, “His-tagged Lis1 (from UniProt P43034 1-410) (natural protein)” gave a Kd of 0.41 µM.
